Assay results published in the supplement of paper PMC10126150.
± gives the standard deviation of the averaged measurements.

What follows are sequences tested on ATP (assay: switch fluorescence ratio, 500 uM ATP over buffer (Cy3 cluster intensity, sum of 5 cycles each) (fold (ratio)); higher = stronger signal-on switching upon ATP binding; sequences stand for … in TCGTCGGCAGCGTCAGATGTGTATAAGAGACAGTTTTTTTTTTTTTTTTTTTTTTTTT…TC). Conditions: aptamer strand: ATP DNA aptamer (quencher-CACCTGGGGGAGTATTGCGGAGGAAGG + anchor), 100 nM annealed; ATP concentration: 500 uM.
Outline: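 The quencher-labelled ATP aptamer, at 100 nM, was annealed to Cy3-labelled switching-strand clusters on a modified Illumina MiSeq flow-cell. The clusters were imaged in selection buffer, then after 15 min with 500 uM ATP at 22 °C, and this buffer/ATP cycle ran five times with NaOH stripping and re-annealing between runs. Per-cluster fluorescence ratios, summed target-cycle over summed buffer-cycle Cy3 intensity, were averaged per switch-domain sequence. Clusters outside 100-1000 RFU were excluded.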
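Further: ATP exposure 15 min at 22 °C before imaging.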

Row | Sequence | switch fluorescence ratio
1 | TATGGGGGGG | 0.994 ± 0.038
2 | TATGGGGGTT | 0.987 ± 0.022
3 | TATGGGTCTC | 0.973 ± 0.049
4 | TATGGGTGCC | 0.9771 ± 0.0042
5 | TATGGGTTCT | 1 ± 0.031
6 | TATGGTAGGC | 0.9857 ± 0.0042
7 | TATGGTCGC | 1.03 ± 0.026
8 | TATGGTGC | 1.06 ± 0.015
9 | TATGTAAACA | 1 ± 0.025
10 | TATGTATTTT | 1.02 ± 0.055
11 | TATGTCAGAG | 1.01 ± 0.039
12 | TATGTCGGCC | 0.975 ± 0.069
13 | TATGTGAACA | 0.991 ± 0.025
14 | TATGTGACGA | 1 ± 0.026
15 | TATGTGCTTG | 0.991 ± 0.021
16 | TATGTGGAGT | 0.9924 ± 0.0089
17 | TATGTGGCGG | 0.974 ± 0.022
18 | TATGTGGGGA | 1.02 ± 0.027
19 | TATGTGGGGG | 1 ± 0.016
20 | TATGTGTTTC | 1.18 ± 0.25
21 | TATGTTACCT | 1.22 ± 0.05
22 | TATGTTGAGG | 1 ± 0.035
23 | TATGTTTATC | 0.975 ± 0.055
24 | TATTAAAATT | 1.008 ± 0.0077
25 | TATTAAACGA | 1.019 ± 0.0063
26 | TATTAAAGAC | 1.04 ± 0.1

Row | Sequence | switch fluorescence ratio
27 | TATTAAATTC | 0.984 ± 0.039
28 | TATTAATAGT | 1.01 ± 0.024
29 | TATTACAAGT | 1.01 ± 0.015
30 | TATTACCGTT | 1.006 ± 0.0076
31 | TATTACTCAG | 1.03 ± 0.025
32 | TATTAGGGAC | 0.994 ± 0.032
33 | TATTAGGGCA | 0.9717 ± 0.0097
34 | TATTAGGGTC | 1.02 ± 0.02
35 | TATTAGGTGT | 1.04 ± 0.04
36 | TATTAGGTTT | 0.991 ± 0.018
37 | TATTAGTATG | 0.991 ± 0.047
38 | TATTATACCT | 1.29 ± 0.053
39 | TATTATTTGG | 1 ± 0.034
40 | TATTCAATGG | 1.02 ± 0.074
41 | TATTCAGAAA | 1.02 ± 0.054
42 | TATTCAGAGG | 0.974 ± 0.02
43 | TATTCAGGCA | 1.01 ± 0.041
44 | TATTCGCTTT | 1.33 ± 0.48
45 | TATTCTGGAT | 0.993 ± 0.026
46 | TATTCTGGGA | 0.9918 ± 0.0078
47 | TATTGAAGGT | 1.026 ± 0.0075
48 | TATTGAGACT | 0.989 ± 0.004
49 | TATTGAGAGC | 1.01 ± 0.064
50 | TATTGCTACT | 1.0114 ± 6.4e-05
51 | TATTGGAACG | 0.99979 ± 0.0003
52 | TATTGGCAGA | 1.008 ± 0.01

Row | Sequence | switch fluorescence ratio
53 | TATTGGCGCT | 0.984 ± 0.018
54 | TATTGGGCGG | 1.01 ± 0.045
55 | TATTGGGCTA | 0.993 ± 0.044
56 | TATTGGGTTT | 0.996 ± 0.022
57 | TATTGGTAAA | 0.997 ± 0.036
58 | TATTGGTAGC | 0.984 ± 0.025
59 | TATTGGTATG | 1 ± 0.017
60 | TATTGGTCGG | 0.993 ± 0.036
61 | TATTGGTTTT | 1 ± 0.011
62 | TATTGTGAGT | 0.996 ± 0.057
63 | TATTGTGGGG | 1 ± 0.044
64 | TATTGTGTTC | 0.9965 ± 0.0035
65 | TATTGTTAGG | 1.01 ± 0.027
66 | TATTTAAAGG | 0.986 ± 0.02
67 | TATTTAACAC | 1.1 ± 0.12
68 | TATTTAATAG | 1.004 ± 0.0028
69 | TATTTAGGGC | 1.04 ± 0.052
70 | TATTTATAAG | 0.96 ± 0.015
71 | TATTTATGCG | 1.021 ± 0.0091
72 | TATTTATTGG | 0.999 ± 0.012
73 | TATTTATTTT | 1.01 ± 0.03
74 | TATTTCATGT | 1.02 ± 0.044
75 | TATTTCATTC | 1.03 ± 0.041
76 | TATTTCGGGT | 1.01 ± 0.068
77 | TATTTCTGCT | 1.04 ± 0.033
78 | TATTTCTGTA | 1.03 ± 0.019

Row | Sequence | switch fluorescence ratio
79 | TATTTCTTTG | 0.979 ± 0.055
80 | TATTTGAAGT | 0.9885 ± 0.0028
81 | TATTTGAGTC | 0.972 ± 0.021
82 | TATTTGCTGT | 1.001 ± 0.001
83 | TATTTGGGAT | 1 ± 0.002
84 | TATTTGGGGT | 0.999 ± 0.027
85 | TATTTGGTTA | 1.024 ± 0.006
86 | TATTTTAGTT | 1.02 ± 0.023
87 | TATTTTATGG | 0.998 ± 0.025
88 | TATTTTATTT | 1 ± 0.018
89 | TATTTTCACT | 1.05 ± 0.11
90 | TATTTTCAGA | 1.04 ± 0.014
91 | TATTTTGCGG | 0.987 ± 0.035
92 | TATTTTGTGC | 1.02 ± 0.012
93 | TATTTTTAGC | 1 ± 0.03
94 | TATTTTTCAG | 1.03 ± 0.015
95 | TATTTTTTA | 1.019 ± 0.0089
96 | TCAAAAAATG | 1.01 ± 0.042
97 | TCAAAATTAT | 1.02 ± 0.043
98 | TCAAAATTGG | 1.004 ± 0.0082
99 | TCAAACGCTT | 1.12 ± 0.15
100 | TCAAAGCGTT | 0.986 ± 0.031
101 | TCAAAGTCGA | 0.976 ± 0.045
102 | TCAAATAATC | 1.01 ± 0.03
103 | TCAAATCCTG | 1.05 ± 0.047
104 | TCAAATGAAT | 0.994 ± 0.05

Row | Sequence | switch fluorescence ratio
105 | TCAAATGTGC | 1.02 ± 0.033
106 | TCAAATTTTT | 0.998 ± 0.045
107 | TCAACGAAGA | 1.01 ± 0.018
108 | TCAACTTTTG | 0.9856 ± 0.0022
109 | TCAAGAGTTC | 1.01 ± 0.06
110 | TCAAGGCGAT | 1.09 ± 0.042
111 | TCAAGGGGAG | 1.06 ± 0.067
112 | TCAAGGTATT | 1 ± 0.034
113 | TCAAGGTGGG | 0.998 ± 0.021
114 | TCAAGTGCTT | 0.9688 ± 0.0071
115 | TCAAGTTAGT | 0.985 ± 0.026
116 | TCAAGTTCTT | 1.03 ± 0.031
117 | TCAAGTTGGC | 0.998 ± 0.09
118 | TCAATAAAGT | 0.961 ± 0.014
119 | TCAATAATGA | 1.02 ± 0.027
120 | TCAATAGCCG | 1.12 ± 0.14
121 | TCAATGATAT | 1.02 ± 0.019
122 | TCAATGGGCT | 0.9899 ± 0.0092
123 | TCAATGTGGC | 1.04 ± 0.036
124 | TCAATGTGTC | 1.03 ± 0.12
125 | TCAATGTTGG | 0.988 ± 0.025
126 | TCAATTCGGC | 0.991 ± 0.025
127 | TCAATTTCGG | 0.99882 ± 0.00079
128 | TCAATTTTTA | 1.02 ± 0.02
129 | TCACAATTTT | 1.08 ± 0.097
130 | TCACAGGATA | 1.021 ± 0.0056

Row | Sequence | switch fluorescence ratio
131 | TCACATGTCG | 1.02 ± 0.053
132 | TCACCGACTA | 1.1952 ± 0.00033
133 | TCACCGATTC | 1.11 ± 0.024
134 | TCACCGTTCT | 1.03 ± 0.032
135 | TCACGATTTA | 0.99 ± 0.057
136 | TCACGGGGCT | 1.01 ± 0.068
137 | TCACTATAGG | 1.02 ± 0.036
138 | TCACTCCTTT | 1.01 ± 0.019
139 | TCACTGGGTC | 1.05 ± 0.023
140 | TCAGAAGGGG | 0.995 ± 0.0085
141 | TCAGAAGTAA | 1.317 ± 0.0066
142 | TCAGAATTGG | 1.01 ± 0.028
143 | TCAGACACGG | 1.04 ± 0.039
144 | TCAGAGGAG | 1.01 ± 0.025
145 | TCAGAGGGAA | 1.07 ± 0.1
146 | TCAGAGGGGC | 0.9913 ± 0.0095
147 | TCAGATAGCG | 0.98 ± 0.043
148 | TCAGCCAGC | 1.06 ± 0.012
149 | TCAGCGCTTT | 0.977 ± 0.032
150 | TCAGCTGGGA | 1 ± 0.026
151 | TCAGGAATGG | 1.055 ± 0.0069
152 | TCAGGACGGG | 0.992 ± 0.02
153 | TCAGGGAGGT | 0.989 ± 0.051
